Data from paper PMC9365671, “Synergistic autoinhibition and activation mechanisms control kinesin-1 motor activity” (Cell reports, 2022).

Assays:
Assay in all cases: quantitative Coomassie blue staining of the co-purified complex; KIF5-mScarlet-StrepII and His-FLAG-KLC1 co-expressed in Sf9, purified on Streptactin XT and by SEC
Details in all cases: partners not purified
[1] = molecular target: T1, full-length human KIF5B-mScarlet-StrepII (human, UniProt P33176 1-963)
T1 construct: kinesin heavy chain KIF5B, human, cDNA BC126281, full length (aa 1-963); 2x Prescission protease sites lie between KIF5B and mScarlet; also called KIF5B-WT; wild-type KIF5B; source: Sf9 (baculovirus), purified (Streptactin XT, SEC); also co-expressed with KLC1 and co-purified; not shown: mScarlet, C-terminal, kept
T1 sequence (looked up): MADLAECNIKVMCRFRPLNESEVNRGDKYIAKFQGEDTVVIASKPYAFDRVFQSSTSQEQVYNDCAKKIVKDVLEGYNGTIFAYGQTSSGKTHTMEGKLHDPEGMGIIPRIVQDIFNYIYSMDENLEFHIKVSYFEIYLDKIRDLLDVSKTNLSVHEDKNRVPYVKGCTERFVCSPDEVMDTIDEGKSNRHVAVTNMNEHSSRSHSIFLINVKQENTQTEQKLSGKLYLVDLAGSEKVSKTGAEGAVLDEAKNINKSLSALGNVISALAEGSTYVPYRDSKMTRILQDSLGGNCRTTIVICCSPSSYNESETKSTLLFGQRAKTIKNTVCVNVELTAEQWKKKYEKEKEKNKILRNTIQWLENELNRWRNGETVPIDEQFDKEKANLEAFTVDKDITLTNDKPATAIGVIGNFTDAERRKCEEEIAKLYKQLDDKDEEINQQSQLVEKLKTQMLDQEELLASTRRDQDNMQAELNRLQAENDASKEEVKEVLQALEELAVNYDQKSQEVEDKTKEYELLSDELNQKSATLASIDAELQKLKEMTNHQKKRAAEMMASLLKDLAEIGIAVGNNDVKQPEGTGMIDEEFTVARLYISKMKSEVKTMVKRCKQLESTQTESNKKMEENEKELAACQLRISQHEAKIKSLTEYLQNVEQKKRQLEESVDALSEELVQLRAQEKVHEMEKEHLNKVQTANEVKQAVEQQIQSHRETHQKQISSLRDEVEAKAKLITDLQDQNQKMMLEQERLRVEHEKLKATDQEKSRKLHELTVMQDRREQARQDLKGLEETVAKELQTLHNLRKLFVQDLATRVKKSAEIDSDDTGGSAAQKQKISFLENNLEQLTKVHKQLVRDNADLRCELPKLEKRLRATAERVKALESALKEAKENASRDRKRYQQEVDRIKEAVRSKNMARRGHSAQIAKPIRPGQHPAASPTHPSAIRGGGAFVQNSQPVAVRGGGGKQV

[2] = molecular target: T2, full-length human KIF5A-mScarlet-StrepII (human, UniProt Q12840 1-1032)
T2 construct: kinesin heavy chain KIF5A, human, cDNA BC146670, full length; 2x Prescission protease sites lie between KIF5A and mScarlet; also called KIF5A dimer; KHC; source: Sf9 (baculovirus), purified (Streptactin XT, SEC); also co-expressed with KLC1 and co-purified; not shown: mScarlet, C-terminal, kept
T2 sequence (looked up): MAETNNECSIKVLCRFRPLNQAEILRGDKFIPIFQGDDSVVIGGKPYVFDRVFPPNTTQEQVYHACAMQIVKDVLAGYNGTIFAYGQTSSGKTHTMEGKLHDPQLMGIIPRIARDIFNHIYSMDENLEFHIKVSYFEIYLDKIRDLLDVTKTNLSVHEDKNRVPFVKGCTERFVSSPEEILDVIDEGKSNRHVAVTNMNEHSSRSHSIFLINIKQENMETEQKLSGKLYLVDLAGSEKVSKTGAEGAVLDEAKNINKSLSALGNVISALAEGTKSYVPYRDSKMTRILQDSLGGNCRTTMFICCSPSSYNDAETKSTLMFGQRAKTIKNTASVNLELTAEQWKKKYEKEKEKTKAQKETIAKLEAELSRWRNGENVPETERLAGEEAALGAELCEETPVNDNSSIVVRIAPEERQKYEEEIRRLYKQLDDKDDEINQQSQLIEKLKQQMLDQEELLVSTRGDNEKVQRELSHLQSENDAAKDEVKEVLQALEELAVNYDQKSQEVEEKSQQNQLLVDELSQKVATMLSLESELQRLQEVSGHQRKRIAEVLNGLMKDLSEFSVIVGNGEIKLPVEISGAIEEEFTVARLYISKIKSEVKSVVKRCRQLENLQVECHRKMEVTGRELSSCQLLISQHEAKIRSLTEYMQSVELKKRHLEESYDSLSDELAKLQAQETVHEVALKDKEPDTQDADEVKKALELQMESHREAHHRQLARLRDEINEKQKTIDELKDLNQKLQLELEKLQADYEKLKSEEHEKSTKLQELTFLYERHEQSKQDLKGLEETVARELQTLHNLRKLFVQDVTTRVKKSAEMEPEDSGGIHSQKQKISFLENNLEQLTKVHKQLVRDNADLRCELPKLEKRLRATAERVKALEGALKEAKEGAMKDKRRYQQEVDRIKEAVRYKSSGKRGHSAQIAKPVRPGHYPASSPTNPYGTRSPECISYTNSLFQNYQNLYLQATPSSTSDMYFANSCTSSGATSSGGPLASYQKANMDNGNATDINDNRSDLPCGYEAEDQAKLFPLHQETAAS

[3] = molecular target: T3, full-length human KIF5C-mScarlet-StrepII (human, UniProt O60282 1-957)
T3 construct: kinesin heavy chain KIF5C, human, cDNA BC110287, full length; 2x Prescission protease sites lie between KIF5C and mScarlet; also called KHC; source: Sf9 (baculovirus), purified (Streptactin XT, SEC); also co-expressed with KLC1 and co-purified; not shown: mScarlet, C-terminal, kept
T3 sequence (looked up): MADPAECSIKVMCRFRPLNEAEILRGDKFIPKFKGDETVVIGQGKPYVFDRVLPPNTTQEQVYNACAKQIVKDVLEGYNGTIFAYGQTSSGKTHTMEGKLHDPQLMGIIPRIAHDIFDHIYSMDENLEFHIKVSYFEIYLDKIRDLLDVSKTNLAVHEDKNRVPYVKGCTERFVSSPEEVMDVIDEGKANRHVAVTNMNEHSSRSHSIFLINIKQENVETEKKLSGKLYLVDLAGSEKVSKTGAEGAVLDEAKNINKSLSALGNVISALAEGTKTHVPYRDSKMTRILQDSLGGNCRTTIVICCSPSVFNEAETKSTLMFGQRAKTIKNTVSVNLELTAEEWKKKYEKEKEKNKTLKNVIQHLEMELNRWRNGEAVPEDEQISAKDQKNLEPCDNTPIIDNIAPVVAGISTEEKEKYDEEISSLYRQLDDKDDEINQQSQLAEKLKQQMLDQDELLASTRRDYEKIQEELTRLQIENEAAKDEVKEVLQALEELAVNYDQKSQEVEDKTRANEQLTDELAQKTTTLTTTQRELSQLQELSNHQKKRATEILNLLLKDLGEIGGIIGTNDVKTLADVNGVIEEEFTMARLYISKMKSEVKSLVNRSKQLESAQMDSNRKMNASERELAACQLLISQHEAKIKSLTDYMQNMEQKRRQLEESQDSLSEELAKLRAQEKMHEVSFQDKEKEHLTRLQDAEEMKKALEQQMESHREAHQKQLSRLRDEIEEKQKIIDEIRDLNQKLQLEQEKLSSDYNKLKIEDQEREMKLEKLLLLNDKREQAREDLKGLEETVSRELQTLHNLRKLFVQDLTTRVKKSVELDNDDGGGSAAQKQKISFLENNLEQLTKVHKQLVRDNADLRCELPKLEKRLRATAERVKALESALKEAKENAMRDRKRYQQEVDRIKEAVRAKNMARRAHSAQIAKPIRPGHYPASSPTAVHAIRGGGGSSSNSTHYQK

Measured: stoichiometry N

B1: 6xHis-FLAG-human KLC1 (co-expressed with KIF5) (natural protein, UniProt Q07866 1-573, looked up)
chain: MYDNMSTMVYIKEDKLEKLTQDEIISKTKQVIQGLEALKNEHNSILQSLLETLKCLKKDDESNLVEEKSNMIRKSLEMLELGLSEAQVMMALSNHLNAVESEKQKLRAQVRRLCQENQWLRDELANTQQKLQKSEQSVAQLEEEKKHLEFMNQLKKYDDDISPSEDKDTDSTKEPLDDLFPNDEDDPGQGIQQQHSSAAAAAQQGGYEIPARLRTLHNLVIQYASQGRYEVAVPLCKQALEDLEKTSGHDHPDVATMLNILALVYRDQNKYKDAANLLNDALAIREKTLGKDHPAVAATLNNLAVLYGKRGKYKEAEPLCKRALEIREKVLGKDHPDVAKQLNNLALLCQNQGKYEEVEYYYQRALEIYQTKLGPDDPNVAKTKNNLASCYLKQGKFKQAETLYKEILTRAHEREFGSVDDENKPIWMHAEEREECKGKQKDGTSFGEYGGWYKACKVDSPTVTTTLKNLGALYRRQGKFEAAETLEEAAMRSRKQGLDNVHKQRVAEVLNDPENMEKRRSRESLNVDVVKYESGPDGGEEVSMSVEWNGGVSGRASFCGKRQQQQWPGRRHR
notes: kinesin light chain 1, human, cDNA BC008881; also called kinesin light chain; source: Sf9, co-expressed with KIF5 from a multi-gene baculovirus, co-purified (Streptactin XT, SEC)
~0.8 KLC1 per KHC: [1] | [2] | [3]
